Patent US20040191860A1

How the values were obtained:
[1] = molecular target: r150, 150 kDa GPI-anchored TGF-β1 binding protein (membrane anchored form) (human) (UniProt Q6YHK3); assay: competition of unlabeled TGF-β3 with 125I-TGF-β1 on keratinocytes, affinity cross-link labeling, densitometry
[2] = molecular target: Transforming growth factor-β1 (UniProt P01137); assay: 125I-TGF-β1 (50 pM) binding to MvLu1 cells with concentrated supernatant of PIPLC treated HaCaT cells, dose 2
[3] = molecular target: Transforming growth factor-β1 (UniProt P01137); assay: 125I-TGF-β1 (50 pM) binding to MvLu1 cells with concentrated supernatant of PIPLC treated HaCaT cells, dose 1 (one T-25 flask, about 1x10^6 cells)
[4] = molecular target: Transforming growth factor-β1 (UniProt P01137); assay: 125I-TGF-β1 (50 pM) binding to MvLu1 cells with concentrated supernatant of untreated HaCaT cells (r150 released by an endogenous phospholipase), dose 1
[5] = molecular target: Transforming growth factor-β1 (UniProt P01137); assay: 125I-TGF-β1 (50 pM) binding to MvLu1 cells with concentrated supernatant of untreated HaCaT cells (r150 released by an endogenous phospholipase), dose 2

Chain of Transforming growth factor-β1 (P01137 279-390 limits assumed): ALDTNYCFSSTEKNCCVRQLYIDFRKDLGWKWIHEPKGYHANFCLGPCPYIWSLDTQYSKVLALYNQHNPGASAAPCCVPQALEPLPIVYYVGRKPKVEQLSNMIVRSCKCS
Chain of r150, 150 kDa GPI-anchored TGF-β1 binding protein (membrane anchored form) (human) (Q6YHK3 other isoform, or with tags, fused parts or gaps limits assumed): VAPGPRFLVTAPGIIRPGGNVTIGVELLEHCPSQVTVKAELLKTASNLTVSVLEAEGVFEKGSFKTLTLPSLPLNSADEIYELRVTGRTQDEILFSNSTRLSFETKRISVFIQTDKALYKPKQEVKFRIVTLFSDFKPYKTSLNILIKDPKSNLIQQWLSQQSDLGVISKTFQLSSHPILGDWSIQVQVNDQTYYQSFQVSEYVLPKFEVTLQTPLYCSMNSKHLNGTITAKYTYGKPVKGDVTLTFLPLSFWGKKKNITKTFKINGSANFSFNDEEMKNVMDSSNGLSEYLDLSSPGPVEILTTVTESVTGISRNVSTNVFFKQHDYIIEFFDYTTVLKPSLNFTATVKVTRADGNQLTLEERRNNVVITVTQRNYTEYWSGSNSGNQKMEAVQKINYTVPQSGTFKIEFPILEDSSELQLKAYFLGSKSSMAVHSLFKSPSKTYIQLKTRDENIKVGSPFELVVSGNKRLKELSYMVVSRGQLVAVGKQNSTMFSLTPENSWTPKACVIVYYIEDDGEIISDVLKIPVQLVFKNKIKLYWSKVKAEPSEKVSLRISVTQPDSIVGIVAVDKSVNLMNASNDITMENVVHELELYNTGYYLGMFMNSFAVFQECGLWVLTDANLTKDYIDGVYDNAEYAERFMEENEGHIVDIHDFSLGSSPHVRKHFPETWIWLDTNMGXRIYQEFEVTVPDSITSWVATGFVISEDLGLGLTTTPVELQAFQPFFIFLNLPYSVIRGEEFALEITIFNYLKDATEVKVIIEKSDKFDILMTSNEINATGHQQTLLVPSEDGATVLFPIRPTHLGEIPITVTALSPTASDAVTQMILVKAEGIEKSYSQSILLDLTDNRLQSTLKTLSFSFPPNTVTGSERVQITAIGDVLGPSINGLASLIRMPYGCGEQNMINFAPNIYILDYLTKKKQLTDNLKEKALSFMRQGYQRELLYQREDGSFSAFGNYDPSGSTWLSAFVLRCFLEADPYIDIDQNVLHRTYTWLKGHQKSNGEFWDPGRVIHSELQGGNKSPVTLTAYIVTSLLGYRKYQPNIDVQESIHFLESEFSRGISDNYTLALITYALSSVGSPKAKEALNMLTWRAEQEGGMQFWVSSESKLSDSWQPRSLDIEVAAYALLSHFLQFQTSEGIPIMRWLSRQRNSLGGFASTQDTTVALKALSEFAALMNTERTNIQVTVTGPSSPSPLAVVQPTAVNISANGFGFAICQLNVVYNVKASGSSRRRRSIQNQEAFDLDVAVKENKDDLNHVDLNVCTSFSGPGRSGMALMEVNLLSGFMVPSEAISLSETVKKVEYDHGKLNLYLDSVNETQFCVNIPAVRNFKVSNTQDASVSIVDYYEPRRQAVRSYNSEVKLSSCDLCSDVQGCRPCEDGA

| Substance | ratio of the concentration for half-maximal inhibition of 125I-TGF-β1 binding, r150 against the types I or II receptors [1] | percent inhibition of 125I-TGF-β1 binding to MvLu1 cells [2] | percent inhibition of 125I-TGF-β1 binding to MvLu1 cells [3] | percent inhibition of 125I-TGF-β1 binding to MvLu1 cells [4] | percent inhibition of 125I-TGF-β1 binding to MvLu1 cells [5] |
| --- | --- | --- | --- | --- | --- |
| Transforming growth factor-β3 (from UniProt P10600 301-412) (ligand) | 6 fold |  |  |  |  |
| soluble r150 (released from the cell surface by PIPLC or by an endogenous phospholipase C) (from UniProt Q6YHK3 22-1420) (receptor) |  | 50% | 33% | 15% | 31% |
